According to US20240216271A1, “HYDROLYTICALLY DEGRADABLE HYDROGELS AND USES THEREOF” (GEORGIA TECH RESEARCH CORPORATION, priority 2021, published 2024):

System: primary monocytes derived from the bone marrow of C57BL/6J mice
Experiment: Bone marrow derived macrophage co-culture with microgels (flow cytometry)
Assay type: cell-based
Conditions: 48 hr of co-culture
Description: To assess the effects of microgels on immune cell polarization in vitro, a co-culture system was setup involving primary monocytes derived from the bone marrow of C57BL/6J mice with different formulations of crosslinked microgels. […] In addition, the overall expression of these markers was equivalent after 4 days of co-culture (FIGS. 11A-D).
Bone Marrow Derived Macrophage Co-culture: Bone marrow was isolated from the femurs and tibias of 6-week-old male C57BL/6J mice. Bones were cleaned of soft tissue, one side was cut to expose the marrow, and they were inverted in a 200 μL pipet tip cut to fit in a 1.5 mL Eppendorf tube. The bones were then centrifuged at 10,000×g for 15 sec to pellet the marrow in the bottom of the Eppendorf tube. Bones were discarded and cells were then resuspended in RBC Lysis Buffer (Biolegend 420302) to remove red blood cells. Cells were then washed in MACS buffer (DPBS pH 7.2, 0.5% BSA, 2 mM EDTA) and monocytes were isolated using the Monocyte Isolation Kit (BM), mouse (Miltenyi Biotec 130-100-629) and LS columns (Miltenyi Biotec 130-042-401).
Monocytes were cultured in RPMI 1640 media (Gibco 11875-085) supplemented with 10% heat-inactivated fetal bovine serum, 1% pen/strep, and 20 ng/mL murine M-CSF (Biolegend 574804) for 6 days in low-adherent plates. […] Samples were analyzed on a FACS-AriaIIIu flow cytometer (BD Biosciences).

With “IL-4: murine IL-4, 20 ng/ml; IL-4-polarized M2 positive control” the “cell viability / cell survival” value was “increase in cell numbers”.
